Experimental data taken from patent US20090087437A1 (Dana-Farber, published 2009).

How the values were obtained:
Experiment in all cases: co-immunoprecipitation from cell lysates, western blot
XIAP = XIAP (UniProt P98170 1-497)
cIAP1 = cIAP1 (UniProt Q13490 1-618)
cIAP2 = biological target: T1, cIAP2 (UniProt Q13489 1-604)
T1 construct: The list of antibodies in the same sentence prints 'cIAP', while the result names 'cIAP2'

Bcl-2 = biological target: T2, Bcl-2 (UniProt P10415 1-239)
T2 construct: also called multidomain antiapoptotic Bcl-2 protein
T2 sequence (P10415 whole entry): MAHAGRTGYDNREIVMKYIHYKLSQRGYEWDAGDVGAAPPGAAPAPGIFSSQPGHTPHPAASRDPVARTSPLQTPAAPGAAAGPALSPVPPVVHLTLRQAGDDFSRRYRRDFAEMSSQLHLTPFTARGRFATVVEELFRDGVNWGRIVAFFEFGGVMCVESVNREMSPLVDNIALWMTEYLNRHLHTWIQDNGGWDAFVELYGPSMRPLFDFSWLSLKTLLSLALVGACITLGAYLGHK

Bcl-xL = biological target: T3, Bcl-xL (UniProt Q07817 1-233)
T3 construct: also called multidomain antiapoptotic Bcl-xL protein
T3 sequence (Q07817 whole entry): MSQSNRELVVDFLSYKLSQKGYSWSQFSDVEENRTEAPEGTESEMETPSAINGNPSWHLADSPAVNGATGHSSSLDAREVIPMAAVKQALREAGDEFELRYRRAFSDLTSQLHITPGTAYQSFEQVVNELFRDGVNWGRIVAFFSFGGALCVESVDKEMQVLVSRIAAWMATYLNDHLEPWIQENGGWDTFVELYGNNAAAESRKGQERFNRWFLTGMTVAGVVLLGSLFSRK

Measured: binding result

T1 sequence (Q13489 whole entry): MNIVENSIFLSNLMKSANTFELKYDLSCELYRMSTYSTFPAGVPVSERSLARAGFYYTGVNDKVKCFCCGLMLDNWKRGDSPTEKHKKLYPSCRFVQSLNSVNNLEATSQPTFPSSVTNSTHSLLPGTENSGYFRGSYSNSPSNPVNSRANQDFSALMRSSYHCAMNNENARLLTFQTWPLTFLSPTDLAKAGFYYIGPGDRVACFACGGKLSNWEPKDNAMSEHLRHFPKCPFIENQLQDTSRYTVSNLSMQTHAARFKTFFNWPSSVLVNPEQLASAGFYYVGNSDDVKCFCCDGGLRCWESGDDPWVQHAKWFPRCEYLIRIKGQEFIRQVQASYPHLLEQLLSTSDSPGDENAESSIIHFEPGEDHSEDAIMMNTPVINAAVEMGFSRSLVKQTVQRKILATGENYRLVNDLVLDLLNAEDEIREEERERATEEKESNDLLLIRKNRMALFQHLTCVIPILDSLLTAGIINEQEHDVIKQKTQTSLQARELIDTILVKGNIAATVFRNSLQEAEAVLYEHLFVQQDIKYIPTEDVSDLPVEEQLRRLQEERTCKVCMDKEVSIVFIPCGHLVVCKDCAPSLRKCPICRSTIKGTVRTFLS
Sequence of XIAP (P98170 whole entry): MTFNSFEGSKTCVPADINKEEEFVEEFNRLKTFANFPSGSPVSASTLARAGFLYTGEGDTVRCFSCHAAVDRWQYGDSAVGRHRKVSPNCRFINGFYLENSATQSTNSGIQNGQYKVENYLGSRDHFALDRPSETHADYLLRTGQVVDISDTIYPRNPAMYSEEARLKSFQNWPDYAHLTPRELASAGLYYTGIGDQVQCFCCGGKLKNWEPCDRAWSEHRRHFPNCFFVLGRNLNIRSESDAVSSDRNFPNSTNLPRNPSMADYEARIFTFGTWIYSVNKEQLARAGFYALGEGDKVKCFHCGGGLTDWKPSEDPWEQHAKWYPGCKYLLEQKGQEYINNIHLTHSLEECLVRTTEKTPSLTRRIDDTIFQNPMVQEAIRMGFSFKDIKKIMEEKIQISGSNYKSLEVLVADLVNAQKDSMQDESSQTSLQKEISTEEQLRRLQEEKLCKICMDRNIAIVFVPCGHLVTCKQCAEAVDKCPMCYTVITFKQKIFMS
Sequence of cIAP1 (Q13490 whole entry): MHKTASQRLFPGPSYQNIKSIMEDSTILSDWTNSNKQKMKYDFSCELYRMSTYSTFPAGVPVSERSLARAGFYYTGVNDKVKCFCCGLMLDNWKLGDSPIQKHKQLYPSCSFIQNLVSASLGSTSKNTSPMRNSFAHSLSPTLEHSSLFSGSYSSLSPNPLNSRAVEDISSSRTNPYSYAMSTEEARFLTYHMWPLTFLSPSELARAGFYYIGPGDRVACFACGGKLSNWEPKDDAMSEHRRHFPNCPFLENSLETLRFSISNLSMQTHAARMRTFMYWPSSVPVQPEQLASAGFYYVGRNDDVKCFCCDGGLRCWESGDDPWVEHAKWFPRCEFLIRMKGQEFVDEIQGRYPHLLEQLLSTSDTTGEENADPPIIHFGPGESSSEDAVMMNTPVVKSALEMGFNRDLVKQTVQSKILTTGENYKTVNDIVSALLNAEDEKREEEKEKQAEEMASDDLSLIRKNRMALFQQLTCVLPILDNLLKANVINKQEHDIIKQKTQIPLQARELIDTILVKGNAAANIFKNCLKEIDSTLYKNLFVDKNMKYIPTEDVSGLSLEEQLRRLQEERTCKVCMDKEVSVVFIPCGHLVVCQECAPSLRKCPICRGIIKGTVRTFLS

B1: MUC1 C-terminal transmembrane subunit (MUC1-C) (other, UniProt P15941 1098-1255, looked up)
chain: SVVVQLTLAFREGTINVHDVETQFNQYKTEAASRYNLTISDVSVSDVPFPFSAQSGAGVPGWGIALLVLVCVLVALAIVYLIALAVCQCRRKNYGQLDIFPARDTYHPMSEYPTYHTHGRYVPPSSTDRSPYEKVSAGNGGSSLSYTNPAVAATSANL
notes: Endogenous protein immunoprecipitated from MCF7 lysates with an anti-MUC1-C antibody
no binding: all assays above
